Non-standard residues stand in square brackets, D forms with d. Ala(4-thiazolyl) = N[C@@H](Cc1cscn1)C(=O)O; 2Pal = N[C@@H](Cc1ccccn1)C(=O)O; 3Pal = N[C@@H](Cc1cccnc1)C(=O)O; 4Pal = N[C@@H](Cc1ccncc1)C(=O)O; d2Pal = N[C@H](Cc1ccccn1)C(=O)O; Ac6c = NC1(C(=O)O)CCCCC1; Ac5c = NC1(C(=O)O)CCCC1
T1: Y2 receptor (human, UniProt P49146 1-381)
T1 construct: whole, on cells; Assayed as membrane homogenates of SK-N-BE2 cells, not intact cells
T1 sequence (looked up): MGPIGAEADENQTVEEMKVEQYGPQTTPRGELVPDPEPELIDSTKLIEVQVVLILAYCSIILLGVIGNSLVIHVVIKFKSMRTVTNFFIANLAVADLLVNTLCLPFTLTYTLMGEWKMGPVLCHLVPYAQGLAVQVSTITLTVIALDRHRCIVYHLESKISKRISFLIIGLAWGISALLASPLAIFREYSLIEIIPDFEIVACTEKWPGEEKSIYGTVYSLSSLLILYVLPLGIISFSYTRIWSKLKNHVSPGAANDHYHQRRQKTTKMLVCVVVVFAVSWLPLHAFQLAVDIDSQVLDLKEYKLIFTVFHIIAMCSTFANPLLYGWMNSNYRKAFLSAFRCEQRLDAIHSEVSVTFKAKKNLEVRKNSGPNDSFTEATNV

T2: Y1 receptor (human, UniProt P25929 1-384)
T2 construct: whole, on cells; Assayed as membrane homogenates of SK-N-MC cells, not intact cells; also called NPY Y1
T2 sequence (looked up): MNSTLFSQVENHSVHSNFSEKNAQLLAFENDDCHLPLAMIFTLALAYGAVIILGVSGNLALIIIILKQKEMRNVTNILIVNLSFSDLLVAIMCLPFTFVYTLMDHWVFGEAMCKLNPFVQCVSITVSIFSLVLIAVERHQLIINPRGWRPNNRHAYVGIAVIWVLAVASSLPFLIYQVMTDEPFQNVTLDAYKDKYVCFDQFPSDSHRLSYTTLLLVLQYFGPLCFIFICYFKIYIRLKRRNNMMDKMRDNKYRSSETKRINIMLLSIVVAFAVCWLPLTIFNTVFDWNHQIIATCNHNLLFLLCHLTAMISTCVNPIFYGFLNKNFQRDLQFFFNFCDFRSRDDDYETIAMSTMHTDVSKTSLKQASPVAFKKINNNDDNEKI


How the values were obtained:
[1] = target: T1, Y2 receptor; assay: radioligand competition against [125I]PYY(3-36), SK-N-BE2 membranes, Cheng-Prusoff
Protocol: (§1) The final pellets were resuspended in approximately 20 ml of 50 mM Tris-HCl containing 5.0 mM MgCl₂, 0.1 mg/ml bacitracin, and 0.1% BSA (Buffer B), and held on ice for the receptor binding assay.
(§2) For assay, aliquots (0.4 ml) of the foregoing suspensions were incubated with 0.05 ml of 0.05 nM [¹²⁵I-Leu³¹, Pro³⁴]PYY (Y1 receptor) or [¹²⁵I]PYY(3-36) (Y2 receptor), (each ˜2200 Ci/mmol, New England Nuclear) in Buffer B, with or without 0.05 ml a solution (ranging from 0.01 nM -1000 nM) of an unlabeled competing peptide. After a 120 min incubation (25° C.), the bound radioligand was separated from the free by rapid filtration through GF/C filters, previously soaked in 0.3% polyethyleneimine. […] Inhibition constants (K₁,) were calculated using the well-known Cheng-Prusoff equation.

[2] = target: T2, Y1 receptor; assay: radioligand competition against [125I-Leu31,Pro34]PYY, SK-N-MC membranes, Cheng-Prusoff
Protocol: as §1, §2

Binder	Ki [1] [µM]	Ki [2] [µM]
Ac-ASLR[3Pal]YLNLVTRQRY-NH2 (SMILES CC(=O)N[C@@H](C)C(=O)N[C@@H](CO)C(=O)N[C@@H](CC(C)C)C(=O)N[C@@H](CCCNC(=N)N)C(=O)N[C@@H](Cc1cccnc1)C(=O)N[C@@H](Cc1ccc(O)cc1)C(=O)N[C@@H](CC(C)C)C(=O)N[C@@H](CC(N)=O)C(=O)N[C@@H](CC(C)C)C(=O)N[C@H](C(=O)N[C@H](C(=O)N[C@@H](CCCNC(=N)N)C(=O)N[C@@H](CCC(N)=O)C(=O)N[C@@H](CCCNC(=N)N)C(=O)N[C@@H](Cc1ccc(O)cc1)C(N)=O)[C@@H](C)O)C(C)C, Synthetic analog of human PYY(22-36)) [Ac-[3Pal^26]hPYY(22-36)NH2]	< 1	< 2
Ac-ASLRHYLNL[Ac5c]TRQRY-NH2 (SMILES CC(=O)N[C@@H](C)C(=O)N[C@@H](CO)C(=O)N[C@@H](CC(C)C)C(=O)N[C@@H](CCCNC(=N)N)C(=O)N[C@@H](Cc1c[nH]cn1)C(=O)N[C@@H](Cc1ccc(O)cc1)C(=O)N[C@@H](CC(C)C)C(=O)N[C@@H](CC(N)=O)C(=O)N[C@@H](CC(C)C)C(=O)NC1(C(=O)N[C@H](C(=O)N[C@@H](CCCNC(=N)N)C(=O)N[C@@H](CCC(N)=O)C(=O)N[C@@H](CCCNC(=N)N)C(=O)N[C@@H](Cc2ccc(O)cc2)C(N)=O)[C@@H](C)O)CCCC1, Synthetic analog of human PYY(22-36)) [Ac-[A5c^31]hPYY(22-36)NH2]	< 1	< 2
Ac-[Ac6c]RHYLNLLTRQRY-NH2 (SMILES CC(=O)NC1(C(=O)N[C@@H](CCCNC(=N)N)C(=O)N[C@@H](Cc2c[nH]cn2)C(=O)N[C@@H](Cc2ccc(O)cc2)C(=O)N[C@@H](CC(C)C)C(=O)N[C@@H](CC(N)=O)C(=O)N[C@@H](CC(C)C)C(=O)N[C@@H](CC(C)C)C(=O)N[C@H](C(=O)N[C@@H](CCCNC(=N)N)C(=O)N[C@@H](CCC(N)=O)C(=O)N[C@@H](CCCNC(=N)N)C(=O)N[C@@H](Cc2ccc(O)cc2)C(N)=O)[C@@H](C)O)CCCCC1, Also carries Leu at 31 (residue 8 of the peptide), already in the entry) [Ac-[A6C^24, Leu^31]hPYY(24-36)NH2]	< 1	< 2
Ac-ASLR[2Pal]YLNLVTRQRY-NH2 (SMILES CC(=O)N[C@@H](C)C(=O)N[C@@H](CO)C(=O)N[C@@H](CC(C)C)C(=O)N[C@@H](CCCNC(=N)N)C(=O)N[C@@H](Cc1ccccn1)C(=O)N[C@@H](Cc1ccc(O)cc1)C(=O)N[C@@H](CC(C)C)C(=O)N[C@@H](CC(N)=O)C(=O)N[C@@H](CC(C)C)C(=O)N[C@H](C(=O)N[C@H](C(=O)N[C@@H](CCCNC(=N)N)C(=O)N[C@@H](CCC(N)=O)C(=O)N[C@@H](CCCNC(=N)N)C(=O)N[C@@H](Cc1ccc(O)cc1)C(N)=O)[C@@H](C)O)C(C)C, Synthetic analog of human PYY(22-36)) [Ac-[2Pal^26]hPYY(22-36)NH2]	< 1	< 2
Ac-ASLR[4Pal]YLNLVTRQRY-NH2 (SMILES CC(=O)N[C@@H](C)C(=O)N[C@@H](CO)C(=O)N[C@@H](CC(C)C)C(=O)N[C@@H](CCCNC(=N)N)C(=O)N[C@@H](Cc1ccncc1)C(=O)N[C@@H](Cc1ccc(O)cc1)C(=O)N[C@@H](CC(C)C)C(=O)N[C@@H](CC(N)=O)C(=O)N[C@@H](CC(C)C)C(=O)N[C@H](C(=O)N[C@H](C(=O)N[C@@H](CCCNC(=N)N)C(=O)N[C@@H](CCC(N)=O)C(=O)N[C@@H](CCCNC(=N)N)C(=O)N[C@@H](Cc1ccc(O)cc1)C(N)=O)[C@@H](C)O)C(C)C, Synthetic analog of human PYY(22-36)) [Ac-[4Pal^26]hPYY(22-36)NH2]	< 1	< 2

The next lines start with the values.

Ki [1] [µM]	Ki [2] [µM]	Binder
< 1	< 2	Ac-ASLRHY[Ac6c]NLVTRQRY-NH2 (SMILES CC(=O)N[C@@H](C)C(=O)N[C@@H](CO)C(=O)N[C@@H](CC(C)C)C(=O)N[C@@H](CCCNC(=N)N)C(=O)N[C@@H](Cc1c[nH]cn1)C(=O)N[C@@H](Cc1ccc(O)cc1)C(=O)NC1(C(=O)N[C@@H](CC(N)=O)C(=O)N[C@@H](CC(C)C)C(=O)N[C@H](C(=O)N[C@H](C(=O)N[C@@H](CCCNC(=N)N)C(=O)N[C@@H](CCC(N)=O)C(=O)N[C@@H](CCCNC(=N)N)C(=O)N[C@@H](Cc2ccc(O)cc2)C(N)=O)[C@@H](C)O)C(C)C)CCCCC1, Synthetic analog of human PYY(22-36)) [Ac-[A6c^28]hPYY(22-36)NH2]
< 1	< 2	Ac-LR[Ala(4-thiazolyl)]YLNLLTRQRY-NH2 (SMILES CC(=O)N[C@@H](CC(C)C)C(=O)N[C@@H](CCCNC(=N)N)C(=O)N[C@@H](Cc1cscn1)C(=O)N[C@@H](Cc1ccc(O)cc1)C(=O)N[C@@H](CC(C)C)C(=O)N[C@@H](CC(N)=O)C(=O)N[C@@H](CC(C)C)C(=O)N[C@@H](CC(C)C)C(=O)N[C@H](C(=O)N[C@@H](CCCNC(=N)N)C(=O)N[C@@H](CCC(N)=O)C(=O)N[C@@H](CCCNC(=N)N)C(=O)N[C@@H](Cc1ccc(O)cc1)C(N)=O)[C@@H](C)O, Also carries Leu at 31 (residue 8 of the peptide), already in the entry) [Ac-(Taz^26, Leu^31)hPPY(24-36)NH2]
< 1	< 2	Ac-ASLRHYLN[Ac6c]VTRQRY-NH2 (SMILES CC(=O)N[C@@H](C)C(=O)N[C@@H](CO)C(=O)N[C@@H](CC(C)C)C(=O)N[C@@H](CCCNC(=N)N)C(=O)N[C@@H](Cc1c[nH]cn1)C(=O)N[C@@H](Cc1ccc(O)cc1)C(=O)N[C@@H](CC(C)C)C(=O)N[C@@H](CC(N)=O)C(=O)NC1(C(=O)N[C@H](C(=O)N[C@H](C(=O)N[C@@H](CCCNC(=N)N)C(=O)N[C@@H](CCC(N)=O)C(=O)N[C@@H](CCCNC(=N)N)C(=O)N[C@@H](Cc2ccc(O)cc2)C(N)=O)[C@@H](C)O)C(C)C)CCCCC1, Synthetic analog of human PYY(22-36)) [Ac-[A6c^30]hPYY(22-36)NH2]
< 1	< 2	Ac-LR[4Pal]YLNLLTRQRY-NH2 (SMILES CC(=O)N[C@@H](CC(C)C)C(=O)N[C@@H](CCCNC(=N)N)C(=O)N[C@@H](Cc1ccncc1)C(=O)N[C@@H](Cc1ccc(O)cc1)C(=O)N[C@@H](CC(C)C)C(=O)N[C@@H](CC(N)=O)C(=O)N[C@@H](CC(C)C)C(=O)N[C@@H](CC(C)C)C(=O)N[C@H](C(=O)N[C@@H](CCCNC(=N)N)C(=O)N[C@@H](CCC(N)=O)C(=O)N[C@@H](CCCNC(=N)N)C(=O)N[C@@H](Cc1ccc(O)cc1)C(N)=O)[C@@H](C)O, Also carries Leu at 31 (residue 8 of the peptide), already in the entry) [Ac-(4Pal^26, Leu^31)hPPY(24-36)NH2]
< 1	< 2	Ac-ASLR[d2Pal]YLNLVTRQRY-NH2 (SMILES CC(=O)N[C@@H](C)C(=O)N[C@@H](CO)C(=O)N[C@@H](CC(C)C)C(=O)N[C@@H](CCCNC(=N)N)C(=O)N[C@H](Cc1ccccn1)C(=O)N[C@@H](Cc1ccc(O)cc1)C(=O)N[C@@H](CC(C)C)C(=O)N[C@@H](CC(N)=O)C(=O)N[C@@H](CC(C)C)C(=O)N[C@H](C(=O)N[C@H](C(=O)N[C@@H](CCCNC(=N)N)C(=O)N[C@@H](CCC(N)=O)C(=O)N[C@@H](CCCNC(=N)N)C(=O)N[C@@H](Cc1ccc(O)cc1)C(N)=O)[C@@H](C)O)C(C)C, Synthetic analog of human PYY(22-36)) [Ac-[D2Pal^26]hPYY(22-36)NH2]
< 1	< 2	Ac-LR[3Pal]YLNLLTRQRY-NH2 (SMILES CC(=O)N[C@@H](CC(C)C)C(=O)N[C@@H](CCCNC(=N)N)C(=O)N[C@@H](Cc1cccnc1)C(=O)N[C@@H](Cc1ccc(O)cc1)C(=O)N[C@@H](CC(C)C)C(=O)N[C@@H](CC(N)=O)C(=O)N[C@@H](CC(C)C)C(=O)N[C@@H](CC(C)C)C(=O)N[C@H](C(=O)N[C@@H](CCCNC(=N)N)C(=O)N[C@@H](CCC(N)=O)C(=O)N[C@@H](CCCNC(=N)N)C(=O)N[C@@H](Cc1ccc(O)cc1)C(N)=O)[C@@H](C)O, Also carries Leu at 31 (residue 8 of the peptide), already in the entry) [Ac-(3Pal^26, Leu^31)hPPY(24-36)NH2]
< 1	< 2	Ac-LR[2Pal]YLNLLTRQRY-NH2 (SMILES CC(=O)N[C@@H](CC(C)C)C(=O)N[C@@H](CCCNC(=N)N)C(=O)N[C@@H](Cc1ccccn1)C(=O)N[C@@H](Cc1ccc(O)cc1)C(=O)N[C@@H](CC(C)C)C(=O)N[C@@H](CC(N)=O)C(=O)N[C@@H](CC(C)C)C(=O)N[C@@H](CC(C)C)C(=O)N[C@H](C(=O)N[C@@H](CCCNC(=N)N)C(=O)N[C@@H](CCC(N)=O)C(=O)N[C@@H](CCCNC(=N)N)C(=O)N[C@@H](Cc1ccc(O)cc1)C(N)=O)[C@@H](C)O, Also carries Leu at 31 (residue 8 of the peptide), already in the entry) [Ac-(2Pal^26, Leu^31)hPPY(24-36)NH2]
< 1	< 2	Ac-ASLRHYLNL[Ac6c]TRQRY-NH2 (SMILES CC(=O)N[C@@H](C)C(=O)N[C@@H](CO)C(=O)N[C@@H](CC(C)C)C(=O)N[C@@H](CCCNC(=N)N)C(=O)N[C@@H](Cc1c[nH]cn1)C(=O)N[C@@H](Cc1ccc(O)cc1)C(=O)N[C@@H](CC(C)C)C(=O)N[C@@H](CC(N)=O)C(=O)N[C@@H](CC(C)C)C(=O)NC1(C(=O)N[C@H](C(=O)N[C@@H](CCCNC(=N)N)C(=O)N[C@@H](CCC(N)=O)C(=O)N[C@@H](CCCNC(=N)N)C(=O)N[C@@H](Cc2ccc(O)cc2)C(N)=O)[C@@H](C)O)CCCCC1, Synthetic analog of human PYY(22-36)) [Ac-[A6c^31]hPYY(22-36)NH2]

Source: patent US20060211610A1 (IPSEN PHARMA S A S, published 2006)
